Measurements from patent US20250264455A1 (HELMHOLTZ ZENTRUM M NCHEN DEUTSCHES FORSCHUNGSZENTRUM F R …, published 2025).

Columns and labels:
QtEnc-SpyTag(003) [1] = biological target: T1, QtEnc-SpyTag(003) (Bacillus thermotolerans (Quasibacillus …, UniProt A0A0F5HPP7 1-282)); assay: TEM, CN-PAGE shift and Western blot after co-expression in HEK cells (SpyTag003/SpyCatcher003 isopeptide)
T1 construct: Q. thermotolerans encapsulin shell monomer with C-terminal SpyTag003; T=4 shell of 240 subunits; expressed in HEK cells; also called QtEnc decorated with SpyTags

LifeAct-emFPv4 = biological target: T2, LifeAct-emFPv4; assay: Clear Native PAGE of co-expressing HEK293T lysate
T2 construct: also called emFPv4 hub

QtEnc-SpyTag(003) [2] = biological target: T1, QtEnc-SpyTag(003); assay: TEM and CN-PAGE after co-expression in HEK cells (SpyTag003/SpyCatcher003 isopeptide)
[3] = biological target: the molecule itself; assay: native 12% Tris-Glycine gel of purified protein with BODIPY FL C16

B1: B-FABP-SpyCatcher003 (other)
chain: MVEAFCATWKLTNSQNFDEYMKALGVGFATRQVGNVTKPTVIISQEGDKVVIRTLSTFKNTEISFQLGEEFDETTADDRNCKSVVSLDGDKLVHIQKWDGKETNFVREIKDGKMVMTLTFGDVVAVRHYEKAPPPPRTGPPPPRVTTLSGLSGEQGPSGDMTTEEDSATHIKFSKRDEDGRELAGATMELRDSSGKTISTWISDGHVKDFYLYPGKYTFVETAAPDGYEVATPIEFTVNEDGQVTVDGEATEGDAHT
notes: also called B-FABP fused via SpyCatcher003
Question: Does B1 bind (QtEnc-SpyTag(003) [1])?
Answer: Result: binds

B2: BFabp-αMoon-Tag (other)
chain: MEVQLVESGGGLVQPGGSLRLSCAASGSISSVDVMSWYRQAPGKQRELVAFITDRGRTNYKVSVKGRFTISRDNSKNMVYLQMNSLKPEDTADYLCRAESRTSWSSPSPLDVWGRGTQVTVSSGGTGGSVEAFCATWKLTNSQNFDEYMKALGVGFATRQVGNVTKPTVIISQEGDKVVIRTLSTFKNTEISFQLGEEFDETTADDRNCKSVVSLDGDKLVHIQKWDGKETNFVREIKDGKMVMTLTFGDVVAVRHYEKA
notes: also called B-Fabp Anti-Moon-Tag
Question: Does B2 bind (LifeAct-emFPv4)?
Answer: Result: binds

B3: BM3h-SpyCatcher003 (other)
chain: MTIKEMPQPKTFGELKNLPLLNTDKPVQALMKIADELGEIFKFEAPGRVTRYLSSQRLIKEACDESRFDKNLSQALKFVRDFAGDGLFTSWTHEKNWKKAHNILLPSFSQQAMKGYHAMMVDIAVQLVQKWERLNADEHIEVPEDMTRLTLDTIGLCGFNYRFNSFYRDQPHPFITSMVRALDEAMNKLQRANPDDPAYDENKRQFQEDIKVMNDLVDKIIADRKASGEQSDDLLTHMLNGKDPETGEPLDDENIRYQIITFLIAGHETTSGLLSFALYFLVKNPHVLQKAAEEAARVLVDPVPSYKQVKQLKYVGMVLNEALRLWPTAPAFSLYAKEDTVLGGEYPLEKGDELMVLIPQLHRDKTIWGDDVEEFRPERFENPSAIPQHAFKPFGNGQRACIGQQFALHEATLVLGMMLKHFDFEDHTNYELDIKETLTLKPEGFVVKAKSKKIPLPPPPRTGPPPPRVTTLSGLSGEQGPSGDMTTEEDSATHIKFSKRDEDGRELAGATMELRDSSGKTISTWISDGHVKDFYLYPGKYTFVETAAPDGYEVATPIEFTVNEDGQVTVDGEATEGDAHT
notes: Heme domain of cytochrome P450 BM3 fused to SpyCatcher003; also called SpyCatcher-Bm3h
Question: Does B3 bind (QtEnc-SpyTag(003) [2])?
Answer: Result: binds

B4: BFabp-FLAG (other)
chain: VEAFCATWKLTNSQNFDEYMKALGVGFATRQVGNVTKPTVIISQEGDKVVIRTLSTFKNTEISFQLGEEFDETTADDRNCKSVVSLDGDKLVHIQKWDGKETNFVREIKDGKMVMTLTFGDVVAVRHYEKAGSGDYKDDDDK
notes: Purified over the FLAG tag
Question: Does B4 bind [3]?
Answer: Result: binds
